Paper PMC7195432, “MD2 activation by direct AGE interaction drives inflammatory diabetic cardiomyopathy” (Nature Communications, 2020)

Biological target: T1, glucose-derived AGE-modified bovine serum albumin (AGE-BSA) (bovine, UniProt P02769 25-607, advanced glycation end product (AGE) modification, glucose-derived, glycolaldehyde-mediated; the modified residues are not stated)
T1 construct: bovine serum albumin, chemically AGE-modified; A heterogeneous glycated preparation; also called AGE-modified BSA; glucose-derived, glycolaldehyde-mediated AGE-BSA; source: bought: BioVision Incorporated (Cat # 2223), purity >98%
Experiment: ITC; Nano-ITC, 25 °C, proteins in ddH2O; AGE-BSA (1 μM) in the cell, MD2 protein solution (5 μM) in the syringe, 20 injections of 2.5 μL; independent model
Settings: both partners purified

T1 sequence (P02769 25-607): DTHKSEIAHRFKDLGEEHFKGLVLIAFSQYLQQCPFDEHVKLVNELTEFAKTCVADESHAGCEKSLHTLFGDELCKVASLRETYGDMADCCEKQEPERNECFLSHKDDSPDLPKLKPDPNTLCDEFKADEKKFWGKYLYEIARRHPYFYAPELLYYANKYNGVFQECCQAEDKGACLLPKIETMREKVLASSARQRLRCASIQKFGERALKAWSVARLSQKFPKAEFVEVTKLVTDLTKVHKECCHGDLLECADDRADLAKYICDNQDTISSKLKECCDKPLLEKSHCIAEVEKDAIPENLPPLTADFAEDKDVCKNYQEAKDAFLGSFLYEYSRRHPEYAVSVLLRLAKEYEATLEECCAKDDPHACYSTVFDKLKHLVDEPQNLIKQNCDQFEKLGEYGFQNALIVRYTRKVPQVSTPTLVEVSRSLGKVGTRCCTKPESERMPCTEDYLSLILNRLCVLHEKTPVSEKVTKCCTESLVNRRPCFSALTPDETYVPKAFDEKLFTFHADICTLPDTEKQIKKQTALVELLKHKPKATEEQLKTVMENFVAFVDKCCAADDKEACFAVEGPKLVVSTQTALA

Kd: 81 µM
B1: recombinant human MD2 (rhMD2) (natural protein, UniProt Q9Y6Y9 19-160, looked up)
chain: QKQYWVCNSSDASISYTYCDKMQYPISINVNPCIELKRSKGLLHIFYIPRRDLKQLYFNLYITVNTMNLPKRKEVICRGSDDDYSFCRALKGETVNTTISFSFKGIKFSKGKYKCVVEAISGSPEEMLFCLEFVILHQPNSN
notes: MD2 (myeloid differentiation 2), human, recombinant; also called human recombinant MD2 protein; source: bought: R&D Systems
